# Source: publication PMC8091058, “Distinct intramolecular interactions regulate autoinhibition of vinculin binding in αT-catenin and αE-catenin” (The Journal of Biological Chemistry, 2021)
# T1: αT-catenin head region (aa 1–659) (Mus musculus, UniProt Q65CL1 1-659)
# T1 construct: αT-catenin, Mus musculus, head region (N- and M-domains), aa 1-659; in pGEX-TEV; also called αT-catenin head (1–659); αT-catenin N1-M3 (aa 1–659); source: E. coli BL21-Gold, purified (glutathione-agarose, TEV cleavage, Mono Q or Mono S, S200)
# T1 sequence (looked up): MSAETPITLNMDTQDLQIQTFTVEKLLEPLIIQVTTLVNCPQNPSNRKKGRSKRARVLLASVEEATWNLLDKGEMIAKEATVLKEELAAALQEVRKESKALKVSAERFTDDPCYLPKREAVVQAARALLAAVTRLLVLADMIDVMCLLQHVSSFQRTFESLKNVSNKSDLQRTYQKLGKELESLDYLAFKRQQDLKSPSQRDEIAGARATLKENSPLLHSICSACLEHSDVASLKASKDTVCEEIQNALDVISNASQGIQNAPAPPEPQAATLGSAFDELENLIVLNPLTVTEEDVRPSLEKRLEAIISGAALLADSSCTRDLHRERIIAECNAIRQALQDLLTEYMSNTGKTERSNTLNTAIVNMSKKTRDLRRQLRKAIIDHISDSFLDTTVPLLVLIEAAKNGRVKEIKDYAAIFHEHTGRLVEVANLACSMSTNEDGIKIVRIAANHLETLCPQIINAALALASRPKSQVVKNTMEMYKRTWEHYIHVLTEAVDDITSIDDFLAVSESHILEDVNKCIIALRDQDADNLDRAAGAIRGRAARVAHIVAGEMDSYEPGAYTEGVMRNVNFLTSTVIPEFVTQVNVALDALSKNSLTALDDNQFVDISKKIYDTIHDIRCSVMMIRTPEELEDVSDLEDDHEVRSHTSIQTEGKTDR
# T2: αT-catenin head (1–659)–β-catenin complex (Mus musculus, UniProt Q65CL1 1-659; Q02248 1-781)
# T2 construct: αT-catenin, Mus musculus, head region, aa 1-659; β-catenin, Mus musculus, full length; also called αT-catenin head–β-catenin complex; source: E. coli BL21-Gold, purified; purified complex
# T2 sequence (looked up) 1: T1 sequence (looked up)
# T2 sequence (looked up) 2: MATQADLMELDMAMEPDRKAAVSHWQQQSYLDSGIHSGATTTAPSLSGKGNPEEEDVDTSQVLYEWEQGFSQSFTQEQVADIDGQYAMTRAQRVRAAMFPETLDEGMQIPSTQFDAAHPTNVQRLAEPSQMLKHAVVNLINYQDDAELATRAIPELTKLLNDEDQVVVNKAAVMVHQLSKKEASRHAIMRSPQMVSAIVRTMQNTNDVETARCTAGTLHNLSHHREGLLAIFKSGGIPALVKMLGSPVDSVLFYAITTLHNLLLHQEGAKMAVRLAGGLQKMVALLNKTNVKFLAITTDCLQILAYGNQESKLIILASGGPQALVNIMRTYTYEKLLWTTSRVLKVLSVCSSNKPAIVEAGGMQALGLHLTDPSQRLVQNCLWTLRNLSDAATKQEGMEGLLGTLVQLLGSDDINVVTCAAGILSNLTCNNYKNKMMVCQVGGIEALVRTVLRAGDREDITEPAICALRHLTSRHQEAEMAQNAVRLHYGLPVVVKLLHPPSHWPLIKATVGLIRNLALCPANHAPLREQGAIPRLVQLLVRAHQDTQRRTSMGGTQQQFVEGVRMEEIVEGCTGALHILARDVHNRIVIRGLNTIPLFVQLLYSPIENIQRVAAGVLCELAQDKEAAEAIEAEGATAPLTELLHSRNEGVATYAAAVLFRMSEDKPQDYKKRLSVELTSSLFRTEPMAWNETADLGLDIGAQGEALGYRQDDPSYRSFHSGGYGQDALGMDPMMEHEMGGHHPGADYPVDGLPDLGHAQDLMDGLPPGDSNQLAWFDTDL
# T3: αT-catenin N2-M3 (aa 147–626) (Mus musculus, UniProt Q65CL1 147-626)
# T3 construct: αT-catenin, Mus musculus, N2-M3, aa 147-626; in pGEX-TEV; also called αT-catenin N2-M3 (147–626); source: E. coli BL21-Gold, purified (glutathione-agarose, TEV cleavage, Mono Q or Mono S, S200)
# T3 sequence (looked up): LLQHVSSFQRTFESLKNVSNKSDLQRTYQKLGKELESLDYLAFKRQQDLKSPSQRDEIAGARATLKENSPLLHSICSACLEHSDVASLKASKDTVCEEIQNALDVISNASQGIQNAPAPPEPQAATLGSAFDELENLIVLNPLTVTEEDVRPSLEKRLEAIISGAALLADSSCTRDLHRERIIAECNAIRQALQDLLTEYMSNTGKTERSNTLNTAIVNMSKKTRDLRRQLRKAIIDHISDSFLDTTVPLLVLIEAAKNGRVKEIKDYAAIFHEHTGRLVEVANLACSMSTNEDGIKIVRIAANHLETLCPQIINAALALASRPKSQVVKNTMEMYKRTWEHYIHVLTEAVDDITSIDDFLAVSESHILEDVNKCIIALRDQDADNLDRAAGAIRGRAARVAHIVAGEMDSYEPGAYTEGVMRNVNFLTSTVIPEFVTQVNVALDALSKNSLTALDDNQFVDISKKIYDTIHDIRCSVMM
# B1: vinculin D1 (aa 1–259) (domain or fragment, UniProt P12003 1-259, looked up)
# chain: MPVFHTRTIESILEPVAQQISHLVIMHEEGEVDGKAIPDLTAPVSAVQAAVSNLVRVGKETVQTTEDQILKRDMPPAFIKVENACTKLVRAAQMLQADPYSVPARDYLIDGSRGILSGTSDLLLTFDEAEVRKIIRVCKGILEYLTVAEVVETMEDLVTYTKNLGPGMTKMAKMIDERQQELTHQEHRVMLVNSMNTVKELLPVLISAMKIFVTTKNTKSQGIEEALKNRNFTVEKMSAEINEIIRVLQLTSWDEDAWA
# notes: vinculin D1 fragment, aa 1-259, the first 2 four-helix bundles; in pGEX-TEV; also called vinculin aa 1 to 259 (D1); vinculin N-terminus; source: E. coli BL21-Gold, purified (glutathione-agarose, TEV cleavage, Mono Q or Mono S, S200)
# Tests used:
# Assay in all cases: ITC; vinculin D1 injected into αT-catenin or αE-catenin fragment (or αT-catenin head–β-catenin complex) in the cell; 25 °C; 20 mM Hepes pH 8.0, 150 mM NaCl, 1 mM TCEP
# Conditions in all cases: both partners purified
# [1] = biological target: T1, αT-catenin head region (aa 1–659)
# [2] = biological target: T2, αT-catenin head (1–659)–β-catenin …
# [3] = biological target: T3, αT-catenin N2-M3 (aa 147–626)
binder,measurement,setting,value
B1,Kd,[1],4.69 ± 2.74 µM
same,dH,[1],2.3 ± 1.3 kcal/mol
same,Kd,[2],2770 ± 875 nM
same,dH,[2],4.4 ± 0.6 kcal/mol
same,Kd,[3],50.2 ± 40.4 nM
same,dH,[3],4 ± 0.1 kcal/mol
